The experiment addresses T1, full-length murine BTNL2 expressed on 300.19 cells (mouse).
T1 construct: No signal peptide limits are stated; also called mBTNL2; mouse BTNL2
T1 chain: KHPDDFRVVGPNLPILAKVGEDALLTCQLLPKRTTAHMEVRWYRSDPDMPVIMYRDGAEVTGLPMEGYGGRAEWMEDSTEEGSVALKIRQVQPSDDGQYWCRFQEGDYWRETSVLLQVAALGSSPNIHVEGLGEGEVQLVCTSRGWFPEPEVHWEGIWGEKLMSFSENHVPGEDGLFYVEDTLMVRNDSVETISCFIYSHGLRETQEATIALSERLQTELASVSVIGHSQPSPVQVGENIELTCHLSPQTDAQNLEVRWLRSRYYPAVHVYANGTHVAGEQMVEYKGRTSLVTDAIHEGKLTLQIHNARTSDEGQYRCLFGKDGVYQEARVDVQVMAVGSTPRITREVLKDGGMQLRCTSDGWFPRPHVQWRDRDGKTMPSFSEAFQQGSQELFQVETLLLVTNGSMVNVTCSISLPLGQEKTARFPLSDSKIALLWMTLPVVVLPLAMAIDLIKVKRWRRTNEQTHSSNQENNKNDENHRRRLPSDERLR
The experiment can be described thus: flow cytometry, cell binding on 300.19 cells expressing full-length mBTNL2. On the procedure: All rat anti-mouse BTNL2 mAbs were tested for reactivity with specific Ig domains of BTNL2 by flow cytometry on 300.19 cells transfected with full length murine BTNL2 cDNA, murine BTLN2 (first IgV domain)-murine PD-L1 (IgC, transmembrane and cytoplasmic domains, or BTNL2 (first IgV domain and 2nd Ig domain and short exon 4)-human TIM-1 mucin-transmembrane-cytoplasmic domains and for lack of reactivity with untransfected 300.19 cells. In particular, mouse pre-B cell line 300.19 cells were transfected by electroporation with full length murine BTNL2 cDNA, murine BTLN2 (first IgV domain)-murine PD-L1 (IgC, transmembrane and cytoplasmic domains, or BTNL2 (first IgV domain and 2nd Ig domain and short exon 4)-human TIM-1 mucin-transmembrane-cytoplasmic domains in the pEFGF-Puro expression vector. Cells were selected in media containing puromycin, sorted, and subcloned. […] Cells were stained with target antibodies and isotype controls using standard flow cytometry procedures, and analyzed on a FACSCanto (BD Biosciences) and FlowJo 9.2 software (TreeStar). […]
A number of anti-BTNL2 monoclonal antibodies were generated and analyzed (see FIGS. 3C-3D and Table 3 below for details), including extensive analysis of two exemplary anti-BTNL2 monoclonal antibodies that were prepared in rat against mouse BTNL2 (mBTNL2). […]

B1: anti-mouse BTNL2 monoclonal antibody clone 311.8A7 (antibody, rat IgG1, V domains shown)
VH: EVRLVESGGGLVQPGRSLKLSCAASGFTFRIFYMAWVRQSPTKGLEWVAYISAGSDFTYYRDSVKGRFTISRDDAKSTLYLEMDSLRSEDTATYHCTTGYRYNFAYWGQGTLVTVSS
VL: DIQLTQSPSSLPASLGERVTISCRSSQDINSHLNWYQQKPDGTIKALIYQTSNLQSGVPSRFSGSGSGADYSLTISSLEPEDFAIFHCQQDADFPYTFGAGTKLELK
notes: Rat IgG1 (kappa) from a hybridoma, 311 series
Regarding B1, a half-maximal effect (EC50) was put at 0.054 µg/mL.

The values above are taken from patent publication US20210032334A1 (Dana-Farber, published 2021).
